{"source": "the RNAGym collection of RNA variant scans (doi:10.7554/elife.90254)", "parents": {"B1": {"name": "OR4K15 (parent)", "chain": "GUUAACGGUCAUAGGCCAUGGAAACUAGGAGCACCAUUUCGCUGCCAGUGAAGAAAUGAACAAAGAAAAUCUGGGCCAGGCAGGCAUCAAAAGAAAUAGUCUUGCGCUCAACCAGAAAGUCUGUAAUCAUUUUAAGGGUA"}}, "data": [{"variants_of": "B1", "assay": "self-cleavage, relative activity (ratio to wild type); higher = more cleavage; in vitro, sequencing; the parent is a self-cleaving ribozyme", "values": [{"variant": "G136A A140U", "self-cleavage": 2.39}, {"variant": "U132C A135G", "self-cleavage": 1.53}, {"variant": "U131C A140U", "self-cleavage": 1.59}, {"variant": "U131C A140G", "self-cleavage": 0.47}, {"variant": "A134G G137U", "self-cleavage": 0.44}, {"variant": "U133C A135U", "self-cleavage": 1.71}, {"variant": "U131A G137U", "self-cleavage": 0.48}, {"variant": "U132C G138U", "self-cleavage": 1.54}, {"variant": "G136A", "self-cleavage": 1.34}, {"variant": "G136C", "self-cleavage": 1.29}, {"variant": "G136U", "self-cleavage": 1.07}, {"variant": "U139A", "self-cleavage": 0.59}, {"variant": "U139C", "self-cleavage": 1.04}, {"variant": "U139G", "self-cleavage": 1.1}, {"variant": "U131C A134G", "self-cleavage": 0.73}, {"variant": "U133A G136U", "self-cleavage": 0.91}, {"variant": "U131C U132C", "self-cleavage": 1.1}, {"variant": "U131C U132A", "self-cleavage": 0.94}, {"variant": "A135U G137U", "self-cleavage": 1.68}, {"variant": "U133G", "self-cleavage": 0.38}, {"variant": "U133A", "self-cleavage": 1.32}, {"variant": "U133C", "self-cleavage": 1.29}, {"variant": "U130C U131A", "self-cleavage": 0.25}, {"variant": "U130C U131C", "self-cleavage": 1.01}, {"variant": "U139C A140C", "self-cleavage": 1.42}, {"variant": "A134G A135G", "self-cleavage": 1.25}, {"variant": "U131C A135C", "self-cleavage": 1.02}, {"variant": "U131C A135U", "self-cleavage": 0.87}, {"variant": "U131C A135G", "self-cleavage": 1.55}, {"variant": "U130C G136U", "self-cleavage": 1.19}, {"variant": "A140C", "self-cleavage": 1.4}, {"variant": "A140G", "self-cleavage": 1.15}, {"variant": "A140U", "self-cleavage": 1.12}, {"variant": "U132C U139A", "self-cleavage": 0.99}, {"variant": "G137C A140U", "self-cleavage": 1.65}, {"variant": "U131C G137U", "self-cleavage": 1.54}, {"variant": "U131C G137A", "self-cleavage": 0.07}, {"variant": "U130G A135G", "self-cleavage": 1.08}, {"variant": "A134G A140G", "self-cleavage": 0.28}, {"variant": "U132C A134G", "self-cleavage": 1.05}, {"variant": "U130C U133C", "self-cleavage": 1.54}, {"variant": "U133C A140U", "self-cleavage": 2.09}, {"variant": "U133C A140G", "self-cleavage": 1.34}, {"variant": "A134U U139A", "self-cleavage": 1.59}]}]}
